# Values of other authors as cited in PMC6640714.
# Target: FcγRIa (Homo sapiens) (UniProt P12314)
# Test: given as Ka
# Sequence of IgG4 (P01861 whole entry): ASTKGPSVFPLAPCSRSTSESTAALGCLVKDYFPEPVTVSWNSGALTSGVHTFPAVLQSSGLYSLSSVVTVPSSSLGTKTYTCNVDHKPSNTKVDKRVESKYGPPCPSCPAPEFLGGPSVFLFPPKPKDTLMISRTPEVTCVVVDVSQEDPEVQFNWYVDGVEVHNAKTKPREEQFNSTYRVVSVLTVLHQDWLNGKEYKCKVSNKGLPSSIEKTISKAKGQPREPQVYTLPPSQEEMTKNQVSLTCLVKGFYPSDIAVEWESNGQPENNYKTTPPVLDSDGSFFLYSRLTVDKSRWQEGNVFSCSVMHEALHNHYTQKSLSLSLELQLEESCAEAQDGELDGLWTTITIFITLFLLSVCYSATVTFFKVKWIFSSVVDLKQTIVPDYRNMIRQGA
# Sequence of FcγRIa (Homo sapiens) (P12314 16-374): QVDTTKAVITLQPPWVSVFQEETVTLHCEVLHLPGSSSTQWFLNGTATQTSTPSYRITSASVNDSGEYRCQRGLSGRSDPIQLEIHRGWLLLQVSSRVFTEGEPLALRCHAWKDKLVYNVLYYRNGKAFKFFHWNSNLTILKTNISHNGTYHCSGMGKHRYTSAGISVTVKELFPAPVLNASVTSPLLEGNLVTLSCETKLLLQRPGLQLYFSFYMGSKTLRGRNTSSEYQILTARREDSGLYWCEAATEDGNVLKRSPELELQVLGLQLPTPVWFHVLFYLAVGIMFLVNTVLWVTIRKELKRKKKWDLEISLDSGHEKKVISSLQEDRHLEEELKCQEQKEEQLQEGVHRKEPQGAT
substance,measurement,value
IgG4 (from UniProt P01861),Kd,29.4 nM
